Measured values from patent US20210205365A1, “Chimeric Growth Factor Receptors” (Instil Bio (UK) Ltd., priority 2018, published 2021).

What was measured:
circulating platelets = settings: 73 healthy volunteers, higher doses; cited from earlier work
[1] = Previous attempts to modify TpoR (surface expression, activity); assay type: cell-based; settings: previously validated
Text: However attempts to modify the receptor were not always straightforward. […] Furthermore, Applicants felt that they could improve the signalling capacity of TpoR-based receptors in T-cells by including signalling components which activate JAK3, a signalling molecule involved in IL-2 signalling but not in TpoR signalling, and therefore more likely to drive IL-2 like signals in engineered cells.
Applicants therefore aimed to generate fusion receptors wherein additional domains were fused directly to the C-terminus of the TpoR IC domain. Applicants first generated a fusion between TpoR and the IL2rβ signalling domain. […] Applicants therefore took an alternative approach where a hybrid TpoR-IL2rβ signalling domain was created whereby the I2rβ signalling region was fused N- or C-terminal to TpoR signalling domain. Next Applicants generated receptors where the cytoplasmic domain of TIAF1, TLR1, CD150, IL2rγ, CD40, LMP1 and ITAM1 from CD3ζ were fused C-terminal to the TpoR signalling domain. […] Applicants also generated CrGFR consisting of TpoR extracellular and transmembrane domain fused to the cytoplasmic domain of CD28 and CD137 as Applicants felt these would provide a costimulatory growth signal upon Eltrombopag administration, sequences of these constructs are provided below.

T-cells = settings: via administration of Tpo or Eltrombopag; cited from earlier work
primary human T-cells [2] = assay: Eltrombopag and IL-2 on CrGFR sorted (CD110+) primary human T-cells, up to 7 days; assay type: cell-based; settings: for expansion of CrGFR cells above that with media alone: second donor (FIG. 12)
Experimental: (§1) FIG. 10—Analysis of Eltrombopag and IL-2 on CrGFR sorted primary human T-cells from Donor 4. Primary human T-cells from donor 4 were transduced with the WT TpoR or variant CrGFR, and enriched for expression by Miltenyi MACS technology selected for and incubated in the presence of IL2 or Eltrombopag. Cells were removed at time points up to 7 days and the number of cells expressing the receptor assessed using PE conjugated anti-CD110 antibodies, DRAQ7 viability dye and a MACSQuant analyser.
as §1, with “11—Analysis” for “10—Analysis”, “5.” for “4.”, “5” for “4”
as §1, with “12—Analysis” for “10—Analysis”, “6.” for “4.”, “6” for “4”
Paramagnetic bead sorts were conducted as per the manufacturers' instructions using either anti-PE microbeads (Miltenyi Biotec or StemCell Technologies), or T-cell isolation beads (17951: StemCell Technologies).
Next Applicants repeated the experiment but sorted the CrGFR+ cells using CD110+ selection by paramagnetic bead selection using the receptors identified from the first round of selections (FIGS. 10, 11 and 12). Applicants observed enhanced survival of T-cells engrafted with the majority of the CrGFR in all three donors. In particular Applicants saw expansion of WT-TpoR, TpOR.CD40, TpOR.IL2rγ and TpoR.LMP1-cyto cells in the second donor (FIG. 12) above that with media alone.

ovarian TIL = assay: CrGFR in ovarian TIL mixed with patient matched tumour cells; assay type: cell-based, human; settings: all three donors
Experimental: (§2) FIG. 14—Analysis of Chimeric recombinant Growth Factor Receptors in Ovarian TIL. Tumour Infiltrating Lymphocytes from ×3 ovarian TIL were transduced with the WT TpoR or indicated variant CrGFR and incubated in the presence of patient matched tumour cells with either Eltrombopag or no growth factors. Cells were analysed and counted at days 4 and 7 and the number of cells expressing the receptor assessed using PE conjugated anti-CD110 antibodies, DRAQ7 viability dye and a MACSQuant analyser. Graphs show counts between days 4 and 7 when recovery of TIL occurs after an initial contraction in numbers driven by tumour regulatory factors and/or activation induced cell death.
Applicants evaluated further the effect of the CrGFR in ovarian TIL. Three ovarian TIL populations were engineered to express either the WT, or TpoR.CD40, TpoR.IL2rγ or TpoR.LMP1-Cyt variant receptors and mixed with patient matched tumour cells in the presence or absence of Eltrombopag. Counts of total and CD110+ cells were made after 4 and 7 days. Applicants observed specific expansion of the CrGFR+ cells in the presence of tumour between days 4 and 7 in donors 2 and 3 with all the receptors except the TpOR.LMP1.cyt.

primary human T-cells [3] = assay: Eltrombopag and IL-2 on CrGFR transduced primary human T-cells, up to 21 days; assay type: cell-based; settings: after 21 days, x3 donors, Eltrombopag
Experimental: (§3) FIGS. 6A-6B—Analysis of Eltrombopag and IL-2 on primary human T-cells from Donor 1. Primary human T-cells from donor 1 were transduced with the WT TpoR or variant CrGFR and incubated in the presence of IL2 or Eltrombopag. Cells were removed at time points up to 21 days and the proportion of cells expressing the receptor assessed using PE conjugated anti-CD110 antibodies and a MACSQuant analyser.
as §3, with “FIGS. 7A-7B—Analysis” for “FIGS. 6A-6B—Analysis”, “Donor 2.” for “Donor 1.”, “donor 2” for “donor 1”
as §3, with “FIGS. 8A-8B—Analysis” for “FIGS. 6A-6B—Analysis”, “Donor 3.” for “Donor 1.”, “donor 3” for “donor 1”
FIGS. 9A-9B—Selection of optimal CrGFRs for next round of analysis. Flow cytometry plots showing expression of CrGFRs in ×3 donor primary human T-cells after 21 days incubation in Eltrombopag. The receptors TpoR.CD40, TpoR.IL2rγ, TpoR.ITAM1, TpoR.A60, TpoR.LMP1-cyto and TpoR.TpoR-cyto.LMP1-cyto were chosen for future comparison with the wt TpoR.
Peripheral blood mononuclear cells were isolated from normal healthy donors before activation for 24 hours with T-cell activation and expansion beads (Invitrogen) according to the manufacturer's instructions before addition of lentiviral supernatants.
Following expansion cells were washed excessively to remove any exogenous IL2 and plated into 96-well U-bottom plates. Cells were supplemented with IL2 (Proleukin) or Eltrombopag (Stratech Scientific, Suffolk, UK). At various time points thereafter cells were either stained with a 1:400 dilution of eFlor-450 fixable viability dye (eBioscience, UK) and counted directly from the wells using a MACSQuant Cytometer, or were stained with DRAQ7 viability dye plus phycoerythrin conjugated anti-CD110 antibodies (Miltenyi Biotec, UK) and analysed using a MACSQuant cytomter. Cell viability and/or transduction level was then analysed using MACSQuantify software (Miltenyi Biotec, UK).
Next Applicants took these receptors and expressed them in primary human T-cells and exposed these cells to IL-2 or Eltrombopag. Three donor primary human T-cell populations were isolated from buffy coats and transduced with the indicated lentiviral constructs in the presence of CD3/CD28 Dynabeads. Following expansion the cells were incubated with IL-2 or Eltrombopag. Applicants saw an increase in expansion/survival of T-cells with some of the receptors in some of the donors. […] This narrowed Applicants' panel of receptors to analyse further to: TpoR.CD40, TpOR.IL2rγ, TpoR.ITAM1, TpOR.LMP1-cyt, and TpoR.TpoR-cyt-LMP1-cyt.

[4] = test system: Tumour Infiltrating Lymphocytes from TIL042; assay: CrGFR in TIL042 mixed with patient matched tumour cells; assay type: cell-based, human
Experimental: as §2, with “FIG. 13—Analysis” for “FIG. 14—Analysis”, “in TIL042.” for “in Ovarian TIL.”, “from TIL042” for “from ×3 ovarian TIL”, “tumour lines” for “tumour cells”, “with the addition of IL2, Eltrombopag, IL-2+Eltrombopag,” for “with either Eltrombopag”
Applicants next assessed the ability of these receptors to promote survival/expansion in a model of adoptive cell therapy by engineering tumour infiltrating lymphocytes. TIL from patient TIL042 (Uveal melanoma) were engineered with the variant or wt CrGFR and mixed with patient matched tumour cells (CTUM42.1). On days 4 and 7 counts were made of the total cells as well as the CD110+ cells. Applicants found an initial decline in cell numbers, probably driven by AICD or intrinsic inhibitory factors. However between days 4 and 7 Applicants observed an increase in the numbers of CD110+ cells with all the receptors tested with Eltrombopag or Eltrombopag+low dose IL-2.

Molecule | tolerability (circulating platelets) | activity in primary human T-cells [1] | survival and expansion of engineered T-cells (T-cells) | expansion of CrGFR cells above that with media alone (primary human T-cells [2]) | activity compared with the WT receptor (ovarian TIL) | proportion of viable cells with a distinct population of CD110+ cells (primary human T-cells [3]) | activity in primary human T-cells (primary human T-cells [2]; conclusion) | non-specific enrichment in IL2 alone ([4]; TIL042 with patient matched tumour cells) | Eltrombopag mediated survival/expansion of TIL ([4]; conclusion)
CC1=NN(c2ccc(C)c(C)c2)C(=O)/C1=N\Nc1cccc(-c2cccc(C(=O)O)c2)c1O [Eltrombopag] | without tolerability problems | – | – | – | – | – | – | – | –
WT TpoR: Wild type TpoR, SEQ ID NO: 1, 635 amino acids (protein, listed as Homo sapiens, MISC_FEATURE (1)..(491): TpoR Extracellular Domain; MISC_FEATURE (492)..(513): TpoR Transmembrane Domain; MISC_FEATURE (514)..(635): TpoR Cytoplasmic Domain) MPSWALFMVTSCLLLAPQNLAQVSSQDVSLLASDSEPLKCFSRTFEDLTCFWDEEEAAPSGTYQLLYAYPREKPRACPLSSQSMPHFGTRYVCQFPDQEEVRLFFPLHLWVKNVFLNQTRTQRVLFVDSVGLPAPPSIIKAMGGSQPGELQISWEEPAPEISDFLRYELRYGPRDPKNSTGPTVIQLIATETCCPALQRPHSASALDQSPCAQPTMPWQDGPKQTSPSREASALTAEGGSCLISGLQPGNSYWLQLRSEPDGISLGGSWGSWSLPVTVDLPGDAVALGLQCFTLDLKNVTCQWQQQDHASSQGFFYHSRARCCPRDRYPIWENCEEEEKTNPGLQTPQFSRCHFKSRNDSIIHILVEVTTAPGTVHSYLGSPFWIHQAVRLPTPNLHWREISSGHLELEWQHPSSWAAQETCYQLRYTGEGHQDWKVLEPPLGARGGTLELRPRSRYRLQLRARLNGPTYQGPWSSWSDPTRVETATETAWISLVTALHLVLGLSAVLGLLLLRWQFPAHYRRLRHALWPSLPDLHRVLGQYLRDTAALSPPKATVSDTCEEVEPSLLEILPKSSERTPLPLCSSQAQMDYRRLQPSCLGTMPLSVCPPMAESGSCCTTHIANHSYLPLSYWQQP | – | can have activity | could permit controlled survival and expansion of T-cells | expansion | – | – | – | – | –
TpoR.CD40: SEQ ID NO: 9; TpoR fused to CD40 cytoplasmic domain (protein, TpoR-CD40; MISC_FEATURE (1)..(491): TpoR Extracellular Domain; MISC_FEATURE (492)..(513): TpoR Transmembrane Domain; MISC_FEATURE (514)..(635): TpoR Cytoplasmic Domain; MISC_FEATURE (636)..(697): CD40 Cytoplasmic Domain) MPSWALFMVTSCLLLAPQNLAQVSSQDVSLLASDSEPLKCFSRTFEDLTCFWDEEEAAPSGTYQLLYAYPREKPRACPLSSQSMPHFGTRYVCQFPDQEEVRLFFPLHLWVKNVFLNQTRTQRVLFVDSVGLPAPPSIIKAMGGSQPGELQISWEEPAPEISDFLRYELRYGPRDPKNSTGPTVIQLIATETCCPALQRPHSASALDQSPCAQPTMPWQDGPKQTSPSREASALTAEGGSCLISGLQPGNSYWLQLRSEPDGISLGGSWGSWSLPVTVDLPGDAVALGLQCFTLDLKNVTCQWQQQDHASSQGFFYHSRARCCPRDRYPIWENCEEEEKTNPGLQTPQFSRCHFKSRNDSIIHILVEVTTAPGTVHSYLGSPFWIHQAVRLPTPNLHWREISSGHLELEWQHPSSWAAQETCYQLRYTGEGHQDWKVLEPPLGARGGTLELRPRSRYRLQLRARLNGPTYQGPWSSWSDPTRVETATETAWISLVTALHLVLGLSAVLGLLLLRWQFPAHYRRLRHALWPSLPDLHRVLGQYLRDTAALSPPKATVSDTCEEVEPSLLEILPKSSERTPLPLCSSQAQMDYRRLQPSCLGTMPLSVCPPMAESGSCCTTHIANHSYLPLSYWQQPKKVAKKPTNKAPHPKQEPQEINFPDDLPGSNTAAPVQETLHGCQPVTQEDGKESRISVQERQ | – | – | – | expansion | superior to that of the WT receptor | good proportion of viable cells with a distinct population of CD110+ cells | optimal activity | no non-specific enrichment | very specific
